Columns and labels:
[1] = Competition Caffeine-ELISA, competition by caffeine; format: binding; settings: competitors caffeine, theophylline, theobromine; FIG. 4
Procedure: After caffeine specific clones had been identified, soluble VHH proteins not linked to phage particles were expressed (Harrison, supra). Binding activity of the VHH proteins was assessed in a Standard Caffeine-ELISA. Microtiter plates were coated with caffeine and blocked as above (Coating and Blocking Steps). The VHH proteins serially diluted in 20 mM Tris. pH 7.2 containing 150 mM NaCl and 0.1% Tween (TBS/BSA/Tween) were added and incubated for 90 min at 37° C. (Primary Antibody Step). Bound VHH fragments were detected by the addition of a 1/1000 dilution in TBS/BSA/Tween of mouse-anti-E Tag antibody (Amersham Bioscience Corporation) for 90 min at 37° C. (Secondary Antibody Step), followed by the addition of a 1/1000 dilution in TBS/BSA/Tween of goat-anti-mouse IgG-alkaline phosphatase conjugate for 90 min at 37° C. (Reporter Antibody Step), before the addition of para-nitrophenyl phosphate substrate (p-npp) (Sigma Aldrich) (Substrate Step). The wells were washed and monitored at A405 as above. […]
Binding of VHH proteins to unconjugated caffeine was also assessed by a competition assay (Competition Caffeine-ELISA) in which 0-800 μg/mL caffeine (Sigma-Aldrich) was added as a competitor along with the VHH during the Primary Antibody Step of the Standard Caffeine-ELISA. […] A405 readings with and without competitor were compared. […]

[2] = Competition Caffeine-ELISA, cross-reactivity with theophylline; format: binding
Procedure: (§1) Binding of VHH proteins to unconjugated caffeine was also assessed by a competition assay (Competition Caffeine-ELISA) in which 0-800 μg/mL caffeine (Sigma-Aldrich) was added as a competitor along with the VHH during the Primary Antibody Step of the Standard Caffeine-ELISA. All other steps are the same as for the Standard Caffeine ELISA. A405 readings with and without competitor were compared. The competition ELISA was used to assess cross-reactivity of theophylline and theobromine (Example 9, FIG. 4) and also the amount of caffeine in various beverages (Example 9, FIG. 7, Table 3).
(§2) Two additional methylxanthines with similar structure to caffeine, theobromine and theophylline, were tested for cross-reactivity with VSA2. The Competition Caffeine-ELISA described above was run using theobromine and theophylline (Sigma-Aldrich) as competitors at concentrations up to 250 μg/mL and compared to competition by caffeine.
(§3) The results of the competition caffeine-ELISA run with increasing concentrations of caffeine (-▪-), theophylline (. .●. .) or theobromine (- -▴- -) is shown in FIG. 4. The response (B) was compared to that of no competitor (Bo).

[3] = Competition Caffeine-ELISA, cross-reactivity with theobromine; format: binding; settings: theobromine at concentrations up to 250 μg/mL
Procedure: as §1, §2, §3

[4] = Thermal stability: Standard Caffeine-ELISA after heat pre-incubation; format: binding
Procedure: (§4) After caffeine specific clones had been identified, soluble VHH proteins not linked to phage particles were expressed (Harrison, supra). Binding activity of the VHH proteins was assessed in a Standard Caffeine-ELISA. Microtiter plates were coated with caffeine and blocked as above (Coating and Blocking Steps). The VHH proteins serially diluted in 20 mM Tris. pH 7.2 containing 150 mM NaCl and 0.1% Tween (TBS/BSA/Tween) were added and incubated for 90 min at 37° C. (Primary Antibody Step). Bound VHH fragments were detected by the addition of a 1/1000 dilution in TBS/BSA/Tween of mouse-anti-E Tag antibody (Amersham Bioscience Corporation) for 90 min at 37° C. (Secondary Antibody Step), followed by the addition of a 1/1000 dilution in TBS/BSA/Tween of goat-anti-mouse IgG-alkaline phosphatase conjugate for 90 min at 37° C. (Reporter Antibody Step), before the addition of para-nitrophenyl phosphate substrate (p-npp) (Sigma Aldrich) (Substrate Step). The wells were washed and monitored at A405 as above. The Standard ELISA assay was used to assess thermal stability and reactivity of VSA2 (Example 9, FIGS. 5 and 6).
The thermal stability of VSA2 was determined and compared to that of two mouse anti-caffeine monoclonal antibodies (Catalog No. G45110 M and G45111 M, U.S. Biological, Swampscott, Mass.). Antibody solutions were prepared in TBS containing 0.1% Tween and incubated for 20 min at temperatures ranging from RT to 90° C. The solutions were re-equilibrated to RT before measuring caffeine binding activity. For VSA2, the Standard Caffeine-ELISA protocol was followed. For the commercial mouse monoclonal antibodies, the Secondary Antibody Step was skipped.

[5] = Thermal reactivity at 70° C. with caffeine-biotinylated nonapeptide and streptavidin magnetic beads; format: binding
Procedure: as §4
The thermal reactivity of VSA2 was also determined. […] The amount of unbound VSA2 remaining in the supernatant was determined in a Standard Caffeine-ELISA.

[6] = Removal of caffeine from solution by VSA2 NiNTA agarose column
Procedure: (§5) The ability of VSA2 to remove caffeine from solution was assessed. VSA2 still containing the His Tag (prior to thrombin cleavage) was coupled to a NiNTA agarose column via its N-terminus His Tag. Approximately 1 mg of antibody was bound to 1 ml of swollen agarose. One mg of a different unrelated protein which also contained a Histag was bound to a NiNTA agarose column as a control. Five μg of caffeine in 0.5 ml of PBS was passed over the column and then washed with 4 ml of PBS and 0.5 ml fractions collected. The amount of caffeine in the wash solutions was determined by absorbance at 273 nm and converted to amount of caffeine via comparison with the absorbance of standards (0, 2.5, 5, 10 ug).
The caffeine bound to the column was eluted with 8 M urea, 100 mM sodium phosphate, 10 mM tris, pH 6.3 and 4.1 ug of caffeine came off the column which was in excellent agreement with the 4.2 ug which had originally bound to the column. No caffeine was eluted from the control column.
The ability of the VSA2 column to remove caffeine from solution was confirmed using HPLC (method previously described) to analyze the original caffeine solution put on the column and the fractions from the column washes. […] The HPLC procedure could not be used to measure the caffeine eluted from the column due to the presence of 8 M urea.

[7] = Removal of caffeine from decaffeinated coffee by VSA2 column; settings: HPLC
Procedure: as §5
The ability of VSA2 to remove caffeine from “decaffeinated” coffee was also assessed using brewed decaffeinated coffee (Seattle's Best™). By HPLC analysis, this batch of decaffeinated coffee had 30.8 μg/mL of caffeine. One hundred and sixty seven μL (5.15 μg caffeine) of the decaffeinated coffee was placed on the column and then the column washed as previously described and caffeine measured by HPLC in the 0.5 ml aliquots. 3.9 μg of caffeine was removed from the first decaffeinated coffee aliquot placed on the column and 0.5 μg from the second 167 μl aliquot. The total of 4.4 μg of caffeine removed by the column was very similar to the 4.2 μg removed by the column when caffeine was in a simple solution.

B1: VSA2: caffeine-specific llama single-domain heavy-chain (VHH) antibody fragment; SEQ ID NO: 1 with T7 and E tags, SEQ ID NO: 4 core (protein)
VHH: GSHMASMTGGQQMGRGSEFAEVQLQASGGGLVQAGGSLRLSCTASGRTGTIYSMAWFRQAPGKEREFLATVGWSSGITYYMDSVKGRFTISRDNAKNSAYLQMNSLKPEDTAVYYCTATRAYSVGYDYWGQGTQVTVSHAAAGAPVPYPDPLEPR
modifications: T7 and E tags; Camelidae antibody
- specificity for caffeine in competition caffeine-ELISA (B/Bo) [1]: highly specific for caffeine
- amount of theophylline relative to caffeine needed for equivalent competition [2]: approximately fourteen times as much theophylline as caffeine
- cross-reactivity with theophylline [2]: 7.4%
- competition by theophylline ([2]; theophylline at 250 μg/mL): some competition
- competition by theobromine [3]: essentially no competition
- effect of heat pre-incubation on caffeine binding ([4]; 20 min at temperatures of 60° C. and below, re-equilibrated to RT): no effect
- activity retained after heat pretreatment ([4]; 20 min at temperatures up to 90° C., re-equilibrated to RT): greater than 90%
- heat stability compared among four representative clones ([4]; purified soluble antibodies, 2 llama and 2 camel clones): greatest degree of heat stability
- VHH remaining in solution ([5]; 20 μg/mL caffeine-biotinylated-nonapeptide): 56.8%
- VHH remaining in solution ([5]; 200 μg/mL caffeine-biotinylated-nonapeptide): 20.1%
- caffeine bound to the column ([6]; HPLC analysis): 3.8 µg
- caffeine eluted from the column ([6]; eluted with 8 M urea, 100 mM sodium phosphate, 10 mM tris, pH 6.3): 4.1 µg
- caffeine bound to the column ([6]; first 5 μg caffeine aliquot, UV method): 3.6 µg
- caffeine recovered in the washing solutions ([6]; five μg caffeine in PBS added, about 1 mg His-tagged VSA2 on 1 ml agarose, absorbance at 273 nm, average of duplicate): 1.4 µg
- additional bound caffeine ([6]; second 5 ug caffeine aliquot, UV method): 0.6 µg
- total caffeine originally bound to the column ([6]; two 5 ug aliquots, UV method): 4.2 µg
- caffeine removed ([7]; first 167 μL decaffeinated coffee aliquot (5.15 μg caffeine)): 3.9 µg
- caffeine removed ([7]; second 167 μl decaffeinated coffee aliquot): 0.5 µg
- total caffeine removed by the column ([7]; two decaffeinated coffee aliquots): 4.4 µg

Source: patent US20070178524A1, “Methods for determining and lowering caffeine concentration in fluids” (Washington University, priority 2004, published 2007)
